{"source": "paper PMC6509359", "about": "(Molecular Cell, 2019)", "biological_target": "the molecule itself", "experiment": "SEC-MALS; 100 μL of 1-2 mg/mL protein on Superdex 200 10/300, 0.5 mL/min, PBS + 2 mM DTT", "data": [{"protein": "Human USP28 (1-703) (domain or fragment, UniProt Q96RU2 1-703, looked up, USP28, human, residues 1-703; source: E. coli Rosetta2(DE3)pLacI, purified (HisTrap, 3C protease, Resource Q, size exclusion)) MTAELQQDDAAGAADGHGSSCQMLLNQLREITGIQDPSFLHEALKASNGDITQAVSLLTDERVKEPSQDTVATEPSEVEGSAANKEVLAKVIDLTHDNKDDLQAAIALSLLESPKIQADGRDLNRMHEATSAETKRSKRKRCEVWGENPNPNDWRRVDGWPVGLKNVGNTCWFSAVIQSLFQLPEFRRLVLSYSLPQNVLENCRSHTEKRNIMFMQELQYLFALMMGSNRKFVDPSAALDLLKGAFRSSEEQQQDVSEFTHKLLDWLEDAFQLAVNVNSPRNKSENPMVQLFYGTFLTEGVREGKPFCNNETFGQYPLQVNGYRNLDECLEGAMVEGDVELLPSDHSVKYGQERWFTKLPPVLTFELSRFEFNQSLGQPEKIHNKLEFPQIIYMDRYMYRSKELIRNKRECIRKLKEEIKILQQKLERYVKYGSGPARFPLPDMLKYVIEFASTKPASESCPPESDTHMTLPLSSVHCSVSDQTSKESTSTESSSQDVESTFSSPEDSLPKSKPLTSSRSSMEMPSQPAPRTVTDEEINFVKTCLQRWRSEIEQDIQDLKTCIASTTQTIEQMYCDPLLRQVPYRLHAVLVHEGQANAGHYWAYIYNQPRQSWLKYNDISVTESSWEEVERDSYGGLRNVSAYCLMYINDKLPYFNAEAAPTESDQMSEVEALSVELKHYIQEDNWRFEQEVEEWEEEQSCKI", "values": [{"measurement": "stoichiometry N", "result": 2}]}, {"protein": "Human USP25 (157-714) P521S F522E (domain or fragment, UniProt Q9UHP3 157-714, looked up, source: E. coli Rosetta2(DE3)pLacI, purified (HisTrap, 3C protease, Resource Q, size exclusion)) NPYDRKRQDKAPVGLKNVGNTCWFSAVIQSLFNLLEFRRLVLNYKPPSNAQDLPRNQKEHRNLPFMRELRYLFALLVGTKRKYVDPSRAVEILKDAFKSNDSQQQDVSEFTHKLLDWLEDAFQMKAEEETDEEKPKNPMVELFYGRFLAVGVLEGKKFENTEMFGQYPLQVNGFKDLHECLEAAMIEGEIESLHSENSGKSGQEHWFTELPPVLTFELSRFEFNQALGRPEKIHNKLEFPQVLYLDRYMHRNREITRIKREEIKRLKDYLTVLQQRLERYLSYGSGPKRFPLVDVLQYALEFASSKPVCTSPVDDIDASSPPSGSIPSQTLPSTTEQQGALSSELPSTSPSSVAAISSRSVIHKSETQSRIPPDLPMHPAPRHITEEELSVLESCLHRWRTEIENDTRDLQESISRIHRTIELMYSDKSMIQVPYRLHAVLVHEGQANAGHYWAYIFDHRESRWMKYNDIAVTKSSWEELVRDSFGGYRNASAYCLMYINDKAQFLIQEEFNKETGQPLVGIETLPPDLRDFVEEDNQRFEKELEEWDAQLAQKALQE", "values": [{"measurement": "stoichiometry N", "result": 2}]}, {"protein": "Human USP25 (157-714) F522L (domain or fragment, UniProt Q9UHP3 157-714, looked up, source: E. coli Rosetta2(DE3)pLacI, purified (HisTrap, 3C protease, Resource Q, size exclusion)) NPYDRKRQDKAPVGLKNVGNTCWFSAVIQSLFNLLEFRRLVLNYKPPSNAQDLPRNQKEHRNLPFMRELRYLFALLVGTKRKYVDPSRAVEILKDAFKSNDSQQQDVSEFTHKLLDWLEDAFQMKAEEETDEEKPKNPMVELFYGRFLAVGVLEGKKFENTEMFGQYPLQVNGFKDLHECLEAAMIEGEIESLHSENSGKSGQEHWFTELPPVLTFELSRFEFNQALGRPEKIHNKLEFPQVLYLDRYMHRNREITRIKREEIKRLKDYLTVLQQRLERYLSYGSGPKRFPLVDVLQYALEFASSKPVCTSPVDDIDASSPPSGSIPSQTLPSTTEQQGALSSELPSTSPSSVAAISSRSVIHKPLTQSRIPPDLPMHPAPRHITEEELSVLESCLHRWRTEIENDTRDLQESISRIHRTIELMYSDKSMIQVPYRLHAVLVHEGQANAGHYWAYIFDHRESRWMKYNDIAVTKSSWEELVRDSFGGYRNASAYCLMYINDKAQFLIQEEFNKETGQPLVGIETLPPDLRDFVEEDNQRFEKELEEWDAQLAQKALQE", "values": [{"measurement": "stoichiometry N", "result": 2}]}, {"protein": "Human USP25 (157-714) Q524S (domain or fragment, UniProt Q9UHP3 157-714, looked up, source: E. coli Rosetta2(DE3)pLacI, purified (HisTrap, 3C protease, Resource Q, size exclusion)) NPYDRKRQDKAPVGLKNVGNTCWFSAVIQSLFNLLEFRRLVLNYKPPSNAQDLPRNQKEHRNLPFMRELRYLFALLVGTKRKYVDPSRAVEILKDAFKSNDSQQQDVSEFTHKLLDWLEDAFQMKAEEETDEEKPKNPMVELFYGRFLAVGVLEGKKFENTEMFGQYPLQVNGFKDLHECLEAAMIEGEIESLHSENSGKSGQEHWFTELPPVLTFELSRFEFNQALGRPEKIHNKLEFPQVLYLDRYMHRNREITRIKREEIKRLKDYLTVLQQRLERYLSYGSGPKRFPLVDVLQYALEFASSKPVCTSPVDDIDASSPPSGSIPSQTLPSTTEQQGALSSELPSTSPSSVAAISSRSVIHKPFTSSRIPPDLPMHPAPRHITEEELSVLESCLHRWRTEIENDTRDLQESISRIHRTIELMYSDKSMIQVPYRLHAVLVHEGQANAGHYWAYIFDHRESRWMKYNDIAVTKSSWEELVRDSFGGYRNASAYCLMYINDKAQFLIQEEFNKETGQPLVGIETLPPDLRDFVEEDNQRFEKELEEWDAQLAQKALQE", "values": [{"measurement": "stoichiometry N", "result": 2}]}, {"protein": "Human USP25 (157-714) F522A (domain or fragment, UniProt Q9UHP3 157-714, looked up, source: E. coli Rosetta2(DE3)pLacI, purified (HisTrap, 3C protease, Resource Q, size exclusion)) NPYDRKRQDKAPVGLKNVGNTCWFSAVIQSLFNLLEFRRLVLNYKPPSNAQDLPRNQKEHRNLPFMRELRYLFALLVGTKRKYVDPSRAVEILKDAFKSNDSQQQDVSEFTHKLLDWLEDAFQMKAEEETDEEKPKNPMVELFYGRFLAVGVLEGKKFENTEMFGQYPLQVNGFKDLHECLEAAMIEGEIESLHSENSGKSGQEHWFTELPPVLTFELSRFEFNQALGRPEKIHNKLEFPQVLYLDRYMHRNREITRIKREEIKRLKDYLTVLQQRLERYLSYGSGPKRFPLVDVLQYALEFASSKPVCTSPVDDIDASSPPSGSIPSQTLPSTTEQQGALSSELPSTSPSSVAAISSRSVIHKPATQSRIPPDLPMHPAPRHITEEELSVLESCLHRWRTEIENDTRDLQESISRIHRTIELMYSDKSMIQVPYRLHAVLVHEGQANAGHYWAYIFDHRESRWMKYNDIAVTKSSWEELVRDSFGGYRNASAYCLMYINDKAQFLIQEEFNKETGQPLVGIETLPPDLRDFVEEDNQRFEKELEEWDAQLAQKALQE", "values": [{"measurement": "stoichiometry N", "result": 2}]}, {"protein": "Human USP25 (157-714) P521A (domain or fragment, UniProt Q9UHP3 157-714, looked up, source: E. coli Rosetta2(DE3)pLacI, purified (HisTrap, 3C protease, Resource Q, size exclusion)) NPYDRKRQDKAPVGLKNVGNTCWFSAVIQSLFNLLEFRRLVLNYKPPSNAQDLPRNQKEHRNLPFMRELRYLFALLVGTKRKYVDPSRAVEILKDAFKSNDSQQQDVSEFTHKLLDWLEDAFQMKAEEETDEEKPKNPMVELFYGRFLAVGVLEGKKFENTEMFGQYPLQVNGFKDLHECLEAAMIEGEIESLHSENSGKSGQEHWFTELPPVLTFELSRFEFNQALGRPEKIHNKLEFPQVLYLDRYMHRNREITRIKREEIKRLKDYLTVLQQRLERYLSYGSGPKRFPLVDVLQYALEFASSKPVCTSPVDDIDASSPPSGSIPSQTLPSTTEQQGALSSELPSTSPSSVAAISSRSVIHKAFTQSRIPPDLPMHPAPRHITEEELSVLESCLHRWRTEIENDTRDLQESISRIHRTIELMYSDKSMIQVPYRLHAVLVHEGQANAGHYWAYIFDHRESRWMKYNDIAVTKSSWEELVRDSFGGYRNASAYCLMYINDKAQFLIQEEFNKETGQPLVGIETLPPDLRDFVEEDNQRFEKELEEWDAQLAQKALQE", "values": [{"measurement": "stoichiometry N", "result": 2}]}, {"protein": "Chimera: Human USP28 (149-[AIM of Human USP25]-703) (domain or fragment) PNPNDWRRVDGWPVGLKNVGNTCWFSAVIQSLFQLPEFRRLVLSYSLPQNVLENCRSHTEKRNIMFMQELQYLFALMMGSNRKFVDPSAALDLLKGAFRSSEEQQQDVSEFTHKLLDWLEDAFQLAVNVNSPRNKSENPMVQLFYGTFLTEGVREGKPFCNNETFGQYPLQVNGYRNLDECLEGAMVEGDVELLPSDHSVKYGQERWFTKLPPVLTFELSRFEFNQSLGQPEKIHNKLEFPQIIYMDRYMYRSKELIRNKRECIRKLKEEIKILQQKLERYVKYGSGPARFPLPDMLKYVIEFASTKPASESCPPESDTHMTLPLSSVHCSVSDQTSKESTSTESSSQDVESTFSSPEDRSVIHKPFTQSRIPMEMPSQPAPRTVTDEEINFVKTCLQRWRSEIEQDIQDLKTCIASTTQTIEQMYCDPLLRQVPYRLHAVLVHEGQANAGHYWAYIYNQPRQSWLKYNDISVTESSWEEVERDSYGGLRNVSAYCLMYINDKLPYFNAEAAPTESDQMSEVEALSVELKHYIQEDNWRFEQEVEEWEEEQSCKI", "values": [{"measurement": "stoichiometry N", "result": 2}]}, {"protein": "Human USP28 (149-703) L415E I419E (domain or fragment, UniProt Q96RU2 149-703, looked up, also called variant with the insertion-destabilizing mutation; source: E. coli Rosetta2(DE3)pLacI, purified (HisTrap, 3C protease, Resource Q, size exclusion)) PNPNDWRRVDGWPVGLKNVGNTCWFSAVIQSLFQLPEFRRLVLSYSLPQNVLENCRSHTEKRNIMFMQELQYLFALMMGSNRKFVDPSAALDLLKGAFRSSEEQQQDVSEFTHKLLDWLEDAFQLAVNVNSPRNKSENPMVQLFYGTFLTEGVREGKPFCNNETFGQYPLQVNGYRNLDECLEGAMVEGDVELLPSDHSVKYGQERWFTKLPPVLTFELSRFEFNQSLGQPEKIHNKLEFPQIIYMDRYMYRSKELIRNKRECIRKEKEEEKILQQKLERYVKYGSGPARFPLPDMLKYVIEFASTKPASESCPPESDTHMTLPLSSVHCSVSDQTSKESTSTESSSQDVESTFSSPEDSLPKSKPLTSSRSSMEMPSQPAPRTVTDEEINFVKTCLQRWRSEIEQDIQDLKTCIASTTQTIEQMYCDPLLRQVPYRLHAVLVHEGQANAGHYWAYIYNQPRQSWLKYNDISVTESSWEEVERDSYGGLRNVSAYCLMYINDKLPYFNAEAAPTESDQMSEVEALSVELKHYIQEDNWRFEQEVEEWEEEQSCKI", "values": [{"measurement": "stoichiometry N", "result": 2}]}, {"protein": "Human USP28 (1-1077) (enzyme, UniProt Q96RU2 1-1077, looked up, USP28, human, residues 1-1077 (1,077 aa); also called full-length USP28; source: E. coli Rosetta2(DE3)pLacI, purified (HisTrap, 3C protease, Resource Q, size exclusion)) MTAELQQDDAAGAADGHGSSCQMLLNQLREITGIQDPSFLHEALKASNGDITQAVSLLTDERVKEPSQDTVATEPSEVEGSAANKEVLAKVIDLTHDNKDDLQAAIALSLLESPKIQADGRDLNRMHEATSAETKRSKRKRCEVWGENPNPNDWRRVDGWPVGLKNVGNTCWFSAVIQSLFQLPEFRRLVLSYSLPQNVLENCRSHTEKRNIMFMQELQYLFALMMGSNRKFVDPSAALDLLKGAFRSSEEQQQDVSEFTHKLLDWLEDAFQLAVNVNSPRNKSENPMVQLFYGTFLTEGVREGKPFCNNETFGQYPLQVNGYRNLDECLEGAMVEGDVELLPSDHSVKYGQERWFTKLPPVLTFELSRFEFNQSLGQPEKIHNKLEFPQIIYMDRYMYRSKELIRNKRECIRKLKEEIKILQQKLERYVKYGSGPARFPLPDMLKYVIEFASTKPASESCPPESDTHMTLPLSSVHCSVSDQTSKESTSTESSSQDVESTFSSPEDSLPKSKPLTSSRSSMEMPSQPAPRTVTDEEINFVKTCLQRWRSEIEQDIQDLKTCIASTTQTIEQMYCDPLLRQVPYRLHAVLVHEGQANAGHYWAYIYNQPRQSWLKYNDISVTESSWEEVERDSYGGLRNVSAYCLMYINDKLPYFNAEAAPTESDQMSEVEALSVELKHYIQEDNWRFEQEVEEWEEEQSCKIPQMESSTNSSSQDYSTSQEPSVASSHGVRCLSSEHAVIVKEQTAQAIANTARAYEKSGVEAALSEVMLSPAMQGVILAIAKARQTFDRDGSEAGLIKAFHEEYSRLYQLAKETPTSHSDPRLQHVLVYFFQNEAPKRVVERTLLEQFADKNLSYDERSISIMKVAQAKLKEIGPDDMNMEEYKKWHEDYSLFRKVSVYLLTGLELYQKGKYQEALSYLVYAYQSNAALLMKGPRRGVKESVIALYRRKCLLELNAKAASLFETNDDHSVTEGINVMNELIIPCIHLIINNDISKDDLDAIEVMRNHWCSYLGQDIAENLQLCLGEFLPRLLDPSAEIIVLKEPPTIRPNSPYDLCSRFAAVMESIQGVSTVTVK", "values": [{"measurement": "stoichiometry N", "result": 2}]}]}
